Assay results from US20240174746A1.

B1: TM-72 (antibody, V domains shown)
VH: QVQLQQPGAELVKPGTSVKLSCKASGSTFTNYWMHWVMQRPGQGLEWIGNIDPSDSDTHYNQKFKDRAKLTVDKSSSTAYMQLSGLTSEDSAVYYCARSRGGYYDYGEAMDYWGQGTSVTVSS
VL: DIVMTQAAPSVPVTPGESVSISCRSSKSLLHTNGNTYLFWFIQRPGQSPHLLIYRKSNLASGVPDRFSGSGSGTAFTLRISRVEAEDVGVYYCMQHLEYPFTFGSGTKLEIK
B2: TM-77 (antibody, V domains shown)
VH: QIQLQQSGAELVRPGASVKLSCKASGYTFTDYEMHWVKQTPVHGLEWIGVIDPETGGTAYNQMFKGKATLTADKSSSTAYMDLRSLTSEDSAVYYCVKYGIEGYWGQGTTLTVSS
VL: DVVMTQIPLTLSVTLGQPASISCKSSQSLFHSNGKTYLNWLLQRPGQSPKLLIYMVSKLESGVPDRFSGSGSGTDFTLKISRVEAEDLGVYYCLQVTHFPLTFGAGTKLELK
B3: TM-79 (antibody, V domains shown)
VH: EVQLQQSGPELVKPGASVKMSCKASGYTFTNYVMHWLKQKPGQGLEWIAHITPHNDGTKYNEKFKGKATLTSDRSSSTAYMELNSLTSEDSAIYYCARSGQFGRGDYFHYWGQGTTVTVSS
VL: DIVLTQSPASLAVSLGQRATISCRASKSVSTSGSIYIHWYQQKPGQPPKLLIYLTSNLESGVPARFSGSGSGTDFTLNIHPVEEEDAATYYCQHSGELPWTFGGGARLEIK
B4: TM-82 (antibody, V domains shown)
VH: QVQLQQSGAELVRPGTSVRVSCKASGYAFTNYLIEWIKQRPGQGLEWIGVINPGSGITDYSEKFKGKARLTADKSSSTAYMQLSSLTSDDSAVYFCTRSPFITTVVADYWGQGTTVTVSS
VL: DVVVTQTPLSLPVSFGDQVSISCRSSQSLANTYGNTYLSWYLHTPGQSPQLLIFGISNRFSGVPDRFSGSGSGTDFTLKISTIKPEDLGVYYCLQGTHPPRTFGGGTKLEMK
B5: TM-90 (antibody, V domains shown)
VH: QVHLQQSGPELVKPGASVKLSCKASGYPFTSYDINWVKQRPGQGLEWIGWIYPRDGNAKYNEKFKGKATLTVDTSSSTAYMELHSLTSENSAVYFCARVSDYHGGYGMDYWGQGTSVTVSS
VL: DVLMTQTPLSLPVSLGDQASISCRSSQSFVHGNGNTYLEWYLQKPGQSPKLLIYKVSHRFSGVPDRFSGSGSGTDFTLKITRVEAEDLGVYYCFQNSHVPHTFGGGTKLEIK

How the values were obtained:
[1] = target: cynomolgus (cyno) TMEM106B (cynomolgus); assay: flow cytometry, HEK293 cells transiently transfected with cyno TMEM106B
mouse TMEM106B (mouse) = mouse TMEM106B (mouse) (UniProt Q80X71); assay: flow cytometry, HEK293 cells transiently transfected with murine TMEM106B
human TMEM106B (human) = human TMEM106B (human) (UniProt Q9NUM4); assay: flow cytometry, HEK293 cells transiently transfected with human TMEM106B

Row | Binder | fold-change in binding over parental HEK293 cells (mouse TMEM106B (mouse)) [fold] | other results
1 | B1 | – | fold-change in binding over parental HEK293 cells [1]: 1.78 fold
2 | B2 | 1.86 | –
3 | B3 | 1.86 | –
4 | B4 | – | fold-change in binding over parental HEK293 cells (human TMEM106B (human)): 1.99 fold
5 | B5 | 1.97 | –
